Consider 2 molecules from publication PMC9848473.

The experiment deals with Bacillus subtilis Rel N-terminal domain region (RelBs^NTD; residues 1 to 373) (B. subtilis). The experiment can be described thus: ITC; DarB or DarB variant (200 uM) in the syringe titrated into RelBs^NTD or variant (15 uM) in the cell; 25 °C; 50 mM Hepes pH 7.5, 500 mM KCl, 500 mM NaCl, 10 mM MgCl2, 1 mM TCEP, 0.002% mellitic acid. On the technique in general: Isothermal titration calorimetry measures the heat released or taken up as one component is titrated into another.

B1: Bacillus subtilis DarB E34R (natural protein)
chain: MISLQSDQLLEATVGQFMIEADKVAHVQVGNNLRHALLVLTKTGYTAIPVLDPSYRLHGLIGTNMIMNSIFGLERIEFEKLDQITVEEVMLTDIPRLHINDPIMKGFGMVINNGFVCVENDEQVFEGIFTRRVVLKELNKHIRSLNK
By Kd is commonly meant the free concentration of one partner at which half of the binding sites on the other are occupied at equilibrium, for simple one-to-one binding. Read a low Kd as tighter binding. B1 returned a Kd of 10.6 µM.

B2: Bacillus subtilis DarB E74G/R75G (natural protein)
chain: MISLQSDQLLEATVGQFMIEADKVAHVQVGNNLEHALLVLTKTGYTAIPVLDPSYRLHGLIGTNMIMNSIFGLGGIEFEKLDQITVEEVMLTDIPRLHINDPIMKGFGMVINNGFVCVENDEQVFEGIFTRRVVLKELNKHIRSLNK
B2: the Kd stood at 8.9 µM.
